Reference: patent US20240238445A1, “INHIBITORS AND USES THEREOF” (NEURACLE SCIENCE CO., LTD., priority 2021, published 2024)
Ends that are not written are not given here.

B1: FBC4C-23 (peptide)
peptide: NFSYFSTVTVETMEPSQDERTTR
B2: FB-20 (peptide)
peptide: GYTYFTTVTVETLETQPGEE
B3: FBC4-23 (peptide)
peptide: NYSFFTTVTVETTEISPEDTTRK

Key:
[1] = target: interaction between Fc conjugated LRRC4B (amino acids 453-576) protein fragment and FAM19A5 protein (Homo sapiens, UniProt Q7Z5A7); assay: Competitive inhibition assay of chemical compounds, plate coated with Fc conjugated LRRC4B fragment (453-576); type: binding; conditions: for effect of increasing concentration on LRRC4B-FAM19A5 interaction (in words): increasing concentrations
Protocol: In particular, the following compounds were produced: (1) KB734, (2) KB761, (3) KB763, (4) KB1157, (5) KB1161, (6) KB1542, (7) KB1543, (8) KB2256, (9) KB2258, (10) KB2310, (11) KB2357, (12) KB2718, (13) KB2719, (14) KB3111, (15) KB3112, (16) KB3220, (17) KB3201, (18) KB3250, and (19) KB3251. Then, the ability of the above chemical compounds to inhibit the binding of LRRC4 protein family members to FAM19A5 protein was assessed using a competitive inhibition assay. Briefly, ELISA plates were coated with 100 nM of a Fc conjugated LRRC4B fragment (amino acids 453-576 of SEQ ID NO: 2; SEQ ID NO: 7). Then, recombinant FAM19A5 protein (1 ng/mL) was added to the plates in combination with one of the above chemical compounds (100 μM). Recombinant FAM19A5 protein alone (“CTRL”) or in combination with DMSO was used as control. The plates were incubated at 37° C. and then, the amount of FAM19A5 protein bound to the coated LRRC4B protein fragment was assessed using HRP-conjugated anti-FAM19A5 (1-65) antibody.
Next, to assess whether increasing the concentration of the chemical compounds could improve the inhibitory effect, increasing concentrations of KB734, KB2310, and KB2357 compounds were subjected to the same competitive inhibition assay described above.
To further assess the inhibitory effect of the KB2357 chemical compound on FAM19A5 protein and members of the LRRC4 protein family, the following derivatives of the KB2357 compound were synthesized as described earlier: (1) KB2304, (2) KB2305, (3) KB2308, (4) KB2309, (5) KB2314, (6) KB2315, (7) KB2324, (8) KB2325, (9) KB2328, (10) KB2329, (11) KB2336, (12) KB2337, (13) KB2350, (14) KB2356, (15) KB2358, (16) KB2359, (17) KB2369, (18) KB2372, and (19) KB2399. The derivative compounds were also tested in the competitive inhibition assay as described above.

[2] = target: hFc-fused hLRRC4B and FAM19A5 complex formation (Homo sapiens, UniProt Q7Z5A7); assay: Competitive inhibition assay (IC50), plate coated with LRRC4B(453-576, TT/TT)-hFc; type: binding; conditions: Table 14; LRRC4B(453-576, TT/TT)-hFc 100 nM coat; peptide 0.03-1000 nM; read-out: IC50 (nM), Inhibition on Complex Formulation between human LRRC4B protein and recombinant FAM19A5 protein (1 ng/mL)
Protocol: The in silico analysis provided in Example 9 highlighted that certain T12 and L13 double mutants might be important in improving the binding affinity of the polypeptides of the present disclosure to the FAM19A5 protein. Therefore, the ability of both the wild-type FB-21 peptide (which is the same as the FB-20 peptide described herein except that the FB-21 peptide additionally contains an alanine at the C-terminus) and several FB-21 mutants were tested for their inhibitor effect on hFc-fused hLRRC4B and FAM19A5 complex formation. Briefly, plate was coated with 100 nM of LRRC4B(453-576, TT/TT)-hFc and then 1 ng/ml of rFAM19A5 was incubated at 37° C. in the presence of increasing concentrations of the different FB-21 peptide fragments (0.03, 0.1, 0.3, 1, 3, 10, 30, 100, 300 and 1000 nM). The LRRC4B-bound FAM19A5 levels were measured using HRP-conjugated 1-65 antibody.

[3] = target: interaction between His-TEV LRRC4B and rFAM19A5 (Homo sapiens, UniProt Q7Z5A7); assay: Competitive inhibition assay (IC50), plate coated with His-TEV LRRC4B; type: binding; conditions: Table 15; His-TEV LRRC4B 100 nM coat; peptide 0.3-10000 nM; read-out: IC50 (nM), Inhibition on Complex Formulation between LRRC4B protein and recombinant FAM19A5 protein (1 ng/ml)
Protocol: To further assess the inhibitory effect of the FB-21 mutants, the ability of additional FB-21 mutants described in Example 9 were tested for their ability to inhibit the interaction between FAM19A5 protein and LRRC4B protein. Briefly, plates were coated with 100 nM of His-TEV LRRC4B and then 1 ng/mL of rFAM19A5 was incubated at 37° C. in the presence of increasing concentrations of the FB-21 peptide fragments (0.3, 1, 3, 10, 30, 100, 300, 1000, 3000 and 10000 nM). The LRRC4B-bound FAM19A5 levels were measured using HRP-conjugated 1-65 SS01 antibody. As shown in FIG. 22B (see Table 15 for IC50), most (if not all) of the FB-21 mutants had improved ability in inhibiting the interaction between LRRC4B and recombinant FAM19A5 protein.
Next, to assess whether other properties of the polypeptides described herein can be improved (e.g., solubility, prevention of degradation from protease and peptidase, and in vivo administration), the following additional FB-21 peptide mutants were constructed and tested for their ability to inhibit the interaction between FAM19A5 protein and LRRC4B: (1) d-form FB-21 peptide (“dFB-21”), (2) d-form FB-21 peptide with juxta-membrane (JM) sequence (“dFB-JM-31”), (3) d-form FB-21 peptide with BBB penetrating sequence at each end of the sequence (“dFB-BBB-39”), and (4) d-form FB-21 mutant peptide with DY replacement and additional JM sequence (“dFB-DY-JM31”). The sequence for d-form FB-21 peptide is set forth in SEQ ID NO: 153 (nYTYFTTVTVETLETQPGEEa; wherein the lowercase amino acids represent D-form of the amino acid, and the uppercase amino acids represent L-form of the amino acid). The sequence for dFB-BBB-39 is set forth in SEQ ID NO: 154 (n[…]l; wherein the lowercase amino acids represent D-form of the amino acid, and the uppercase amino acids represent L-form of the amino acid). The sequence for dFB-JM-31 is set forth in SEQ ID NO: 155 (n[…]a; wherein the lowercase amino acids represent D-form of the amino acid, and the uppercase amino acids represent L-form of the amino acid). The sequence for dFB-DY-JM31 is set forth in SEQ ID NO: 156 (n[…]a; wherein the lowercase amino acids represent D-form of the amino acid, and the uppercase amino acids represent L-form of the amino acid). The overall experimental methods were the same as those described immediately above.

FAM19A5 protein [4] = target: T1, FAM19A5 protein (Homo sapiens, UniProt Q7Z5A7); assay: competitive inhibition ELISA, 20 nM peptide, rFAM19A5 5 ng/mL; competitor: coated LRRC4B(36-576)-hFc
FAM19A5 protein [5] = target: T1, FAM19A5 protein; assay: competitive inhibition ELISA, 20 nM peptide, rFAM19A5 1 ng/mL; competitor: coated LRRC4B(453-576)-hFc
FAM19A5 protein [6] = target: T1, FAM19A5 protein; assay: as above; remark: listed apart in the source
FAM19A5 protein [7] = target: T1, FAM19A5 protein; assay: competitive inhibition ELISA; competitor: coated LRRC4B(36-576)-hFc
FAM19A5 protein [8] = target: T1, FAM19A5 protein; assay: competitive inhibition ELISA, 20 nM peptide, rFAM19A5 5 ng/mL; competitor: coated LRRC4B(36-576)-hFc; remark: listed apart in the source
FAM19A5 protein [9] = target: T1, FAM19A5 protein; assay: competitive inhibition ELISA; competitor: coated LRRC4B(453-576)-hFc

interaction between Fc conjugated LRRC4B (amino acids 453-576) protein fragment and FAM19A5 protein, sequence (Q7Z5A7 44-132): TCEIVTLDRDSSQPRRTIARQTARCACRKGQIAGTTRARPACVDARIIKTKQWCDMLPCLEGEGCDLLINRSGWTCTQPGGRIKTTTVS

| Molecule | effect of increasing concentration on LRRC4B-FAM19A5 interaction (in words) [1] | Inhibition rate (%) (FAM19A5 protein [4]) | Inhibition rate (%) (FAM19A5 protein [5]) | other results |
| --- | --- | --- | --- | --- |
| CCCCC[C@H](O)C#Cc1ccc(O)c(OC)c1 [KB2358, (S)-4-(3-Hydroxyoct-1-yn-1-yl)-2-methoxyphenol] | able to reduce the interaction in a dose-dependent manner |  |  |  |
| CCCCCC(O)/C=C\c1ccc(O)c(OC)c1 (stereo not shown) [KB2356, (Z)-4-(3-Hydroxyoct-1-en-1-yl)-2-methoxyphenol] | able to reduce the interaction in a dose-dependent manner |  |  |  |
| CCCCC[C@@H](O)C#Cc1ccc(O)c(OC)c1 [KB2357, (R)-4-(3-Hydroxyoct-1-yn-1-yl)-2-methoxyphenol] | greater reduction in the interaction |  |  | reduction of interaction between FAM19A5 and the coated LRRC4B protein fragment compared to the controls ([1]; 100 μM compound, FAM19A5 1 ng/mL): about 10% |
| GYTYFTTVTVETLETQPGEEA [FB-21 (wild-type)] |  |  |  | IC50 [2]: 11.9 nM; IC50 [3]: 138 nM |
| B1 |  | 65.7% | 40.4% |  |
| B2 |  | 77% | 63.2% | Inhibition rate (%) (FAM19A5 protein [6]): 62%; Inhibition rate (%) (FAM19A5 protein [7]): 77%; Inhibition rate (%) (FAM19A5 protein [8]): 84.3%; Inhibition rate (%) (FAM19A5 protein [9]): 63.2% |
| B3 |  | 64.1% | 40.4% |  |
